Test results published in patent publication US12559863B2, “Macrocyclic modulators of disease associated protein misfolding and aggregation” (RESQ BIOTECH, priority 2017, dated 2026).

Target: T1, Aβ42-GFP (Homo sapiens, UniProt P05067)
T1 construct: a chimeric fusion of the human Aβ(1-42) peptide (Aβ42) with GFP; expressed in transfected cells; host or cells: E. coli BL21(DE3)
Assay: High-throughput sequencing of pSICLOPPS vectors isolated after bacterial sorting for enhanced Aβ42-GFP fluorescence
Details: for Reads/Total TXXXR reads (%): relative to total TXXXR reads; for Normalized read number (%): Table 3, cyclo-TXXR tetrapeptides
Text: On the other hand, very few bioactive sequences resembling AβC5-34 should exist. […] The peptide-encoding vectors contained in these clones were isolated and the peptide-encoding region of approximately 5.6 million of these plasmids was sequenced using an Ion Torrent high-throughput sequencing platform. […] First, pentapeptides were the dominant peptide species within the sorted pool (FIG. 12D), in agreement with previous observations (FIG. 8G). Second, the most prevalent motif among the selected pentapeptide sequences were TXXXR pentapeptides (˜47% of the selected pentapeptide-encoding pSICLOPPS plasmids; ˜42% of the unique selected pentapeptide sequences) (Table 1), in accordance with previous observations (FIG. 8G). […] At position 2, Thr, Ala, and Val were preferred, while aromatic residues (Phe, Trp, Tyr) were completely excluded from the selected TXXXR peptide pool, in full agreement with our site-directed mutagenesis studies. At the highly variable position 3, the complete absence of the negatively charged amino acids Glu and Asp among the selected sequences was notable (FIG. 12E). […] It is noteworthy, that Lys and Gln residues were practically absent from all positions, while the β sheet-breaking amino acid Pro that is typically included in designed peptide-based inhibitors of amyloid aggregation appeared with strikingly low frequencies (FIG. 12E).
Electrocompetent E. coli BL21(DE3) cells (Novagen, USA) carrying either the expression vector pETSOD1(A4V)-GFP, which produces SOD1(A4V)-GFP under control of the strong bacteriophage T7 promoter, or pETAβ42-GFP, which produces Aβ42-GFP under control of the T7 promoter, were co-transformed with the combined pSICLOPPS-NuX1X2X3-X5 vector library. Approximately 10^8 transformants carrying both the vector library and either pETSOD1(A4V)-GFP or pETAβ42-GFP vectors were harvested, pooled together, and grown in Luria-Bertani (LB) liquid medium containing either 0.005% (pETSOD1(A4F)-GFP) or 0.002% (pETAβ42-GFP) L-arabinose—the inducer of cyclic peptide production—at 37° C. with shaking. When the optical density at 600 nm (OD600) of the bacterial culture was about 0.5, 0.01 (pETSOD1(A4F)-GFP) or 0.1 (pETAβ42-GFP) mM isopropyl-β-D-thiogalactoside (IPTG) was added to the medium to induce overexpression of the reporter. […] The isolated cells were re-grown and screened for additional rounds in an identical manner until the desired enrichment in high-fluorescence clones was achieved.
For the characterization of the initial libraries, a combined pSICLOPPS-NuX1X2X3-X5 vector library was prepared containing approximately equal amounts of each one of the tetra-, penta- and hexapeptide sub-libraries. These samples were digested with NcoI and BsrGI and the resulting ˜250 bp product that contained the variable peptide-encoding region was isolated. High-throughput sequencing analysis was performed using an Ion Torrent high-throughput sequencing platform. From the obtained data, all the sequences with mismatches outside of the variable peptide-encoding region were removed, and only the 12-, 15- or 18-bp-long peptide-encoding sequences were subjected to further analysis. The libraries of the selected cyclic peptides that enhance either SOD1(A4V)-GFP or Aβ42-GFP fluorescence were sequenced in a similar manner, with the only exception being that all sequences including stop codons were discarded from subsequent analysis.

[1] = after the second round of bacterial sorting
[2] = after the second round of bacterial sorting, relative to total pentapeptide reads
[3] = after the second round of bacterial sorting, relative to total peptide reads
[4] = high-throughput sequencing of isolated pSICLOPPS-NuX1X2X3-X5 vectors after the second round of bacterial sorting for enhanced Aβ42-GFP fluorescence, selected cyclo-TXXXR pentapeptides
[5] = after the second round of bacterial sorting for enhanced Aβ42-GFP fluorescence
[6] = after the second round of bacterial sorting for enhanced Aβ42-GFP fluorescence, relative to total pentapeptide reads
[7] = after the second round of bacterial sorting for enhanced Aβ42-GFP fluorescence, relative to total peptide reads
[8] = pSICLOPPS-NuX1X2X3-X5 vectors after the second round of bacterial sorting for enhanced Aβ42-GFP fluorescence
[9] = Table 4, hexapeptides, after second round of sorting

## AβC5-348 (TTLTR; head-to-tail cyclic)
[1]
  Reads/Total TXXXR reads (%): 0.006%
[2]
  Reads/Total pentapeptide reads (%): 0.003%
[3]
  Reads/Total peptide reads (%): 0.003%
[4]
  Number of reads: 119

## AβC5-422 (TAWRR; cyclic pentapeptide)
[5]
  Reads/Total TXXXR reads (%): 0.004%
[6]
  Reads/Total pentapeptide reads (%): 0.002%
[7]
  Reads/Total peptide reads (%): 0.002%
[8]
  Number of reads: 72

## AβC5-428 (TTCGR; cyclic pentapeptide)
[5]
  Reads/Total TXXXR reads (%): 0.004%
[6]
  Reads/Total pentapeptide reads (%): 0.002%
[7]
  Reads/Total peptide reads (%): 0.002%
[8]
  Number of reads: 69

## AβC5-184 (TVLAR; cyclic)
[1]
  Reads/Total TXXXR reads (%): 0.043%
[2]
  Reads/Total pentapeptide reads (%): 0.020%
[3]
  Reads/Total peptide reads (%): 0.018%
[4]
  Number of reads: 818

## AβC5-389 (THLDR; head-to-tail cyclic)
[5]
  Reads/Total TXXXR reads (%): 0.005%
[6]
  Reads/Total pentapeptide reads (%): 0.002%
[7]
  Reads/Total peptide reads (%): 0.002%
[8]
  Number of reads: 89

## TLKWLN [AβC6-10]
Table 4
  Reads/Total hexapeptide reads (%): 2.434%
  Reads/Total peptide reads (%): 0.243%
[9]
  Number of reads: 11,016

## TPAWFD [AβC6-2]
Table 4
  Reads/Total hexapeptide reads (%): 24.555%
  Reads/Total peptide reads (%): 2.453%
[9]
  Number of reads: 111,132

## AβC5-50 (TALAR; cyclic pentapeptide)
[1]
  Reads/Total TXXXR reads (%): 1.022%
[2]
  Reads/Total pentapeptide reads (%): 0.479%
[3]
  Reads/Total peptide reads (%): 0.429%
[4]
  Number of reads: 19,433

## cyclo-TLIR (cyclic) [AβC4B-41]
  Normalized read number (%): 0.775%

## AβC5-35 (TVRDR; head-to-tail cyclic)
[1]
  Reads/Total TXXXR reads (%): 1.337%
[2]
  Reads/Total pentapeptide reads (%): 0.626%
[3]
  Reads/Total peptide reads (%): 0.561%
[4]
  Number of reads: 25,428

## TPPWFD [AβC6-44]
Table 4
  Reads/Total hexapeptide reads (%): 0.064%
  Reads/Total peptide reads (%): 0.006%
[9]
  Number of reads: 289

## TLEYLW [AβC6-49]
Table 4
  Reads/Total hexapeptide reads (%): 0.051%
  Reads/Total peptide reads (%): 0.005%
[9]
  Number of reads: 233

## AβC5-453 (TLFWR; cyclic pentapeptide)
[5]
  Reads/Total TXXXR reads (%): 0.003%
[6]
  Reads/Total pentapeptide reads (%): 0.001%
[7]
  Reads/Total peptide reads (%): 0.001%
[8]
  Number of reads: 57

## AβC5-155 (TSLDR; cyclic)
[1]
  Reads/Total TXXXR reads (%): 0.066%
[2]
  Reads/Total pentapeptide reads (%): 0.031%
[3]
  Reads/Total peptide reads (%): 0.028%
[4]
  Number of reads: 1,251

## TPVLVD [AβC6-48]
Table 4
  Reads/Total hexapeptide reads (%): 0.052%
  Reads/Total peptide reads (%): 0.005%
[9]
  Number of reads: 236

## AβC5-317 (TTAWR; head-to-tail cyclic)
[1]
  Reads/Total TXXXR reads (%): 0.008%
[2]
  Reads/Total pentapeptide reads (%): 0.004%
[3]
  Reads/Total peptide reads (%): 0.003%
[4]
  Number of reads: 156

## AβC5-5 (TTTWR; cyclic pentapeptide)
[1]
  Reads/Total TXXXR reads (%): 9.228%
[2]
  Reads/Total pentapeptide reads (%): 4.323%
[3]
  Reads/Total peptide reads (%): 3.874%
[4]
  Number of reads: 175,510

## AβC5-464 (TTPAR; cyclic pentapeptide)
[5]
  Reads/Total TXXXR reads (%): 0.003%
[6]
  Reads/Total pentapeptide reads (%): 0.001%
[7]
  Reads/Total peptide reads (%): 0.001%
[8]
  Number of reads: 54

## AβC5-105 (TVRWR; cyclic)
[1]
  Reads/Total TXXXR reads (%): 0.287%
[2]
  Reads/Total pentapeptide reads (%): 0.134%
[3]
  Reads/Total peptide reads (%): 0.120%
[4]
  Number of reads: 5,450

## AβC5-469 (TTIGR; cyclic pentapeptide)
[5]
  Reads/Total TXXXR reads (%): 0.003%
[6]
  Reads/Total pentapeptide reads (%): 0.001%
[7]
  Reads/Total peptide reads (%): 0.001%
[8]
  Number of reads: 53

## TPAWLD [AβC6-79]
Table 4
  Reads/Total hexapeptide reads (%): 0.012%
  Reads/Total peptide reads (%): 0.001%
[9]
  Number of reads: 55

## cyclo-TTRR (cyclic) [AβC4-11]
  Normalized read number (%): 1.2%

## AβC5-483 (TRVGR; cyclic pentapeptide)
[5]
  Reads/Total TXXXR reads (%): 0.003%
[6]
  Reads/Total pentapeptide reads (%): 0.001%
[7]
  Reads/Total peptide reads (%): 0.001%
[8]
  Number of reads: 50

## cyclo-SICPT [AβC5-216]
Table 2
  Reads/Total SASPT-like reads (%): 1.957%
  Reads/Total pentapeptide reads (%): 0.013%
  Reads/Total peptide reads (%): 0.011%
Table 2, after second round of sorting
  Number of reads: 516

## cyclo-TTSR (cyclic) [AβC4-31]
  Normalized read number (%): 0.3241%

## AβC5-355 (TATVR; head-to-tail cyclic)
[1]
  Reads/Total TXXXR reads (%): 0.006%
[2]
  Reads/Total pentapeptide reads (%): 0.003%
[3]
  Reads/Total peptide reads (%): 0.003%
[4]
  Number of reads: 115

## AβC5-270 (TATWR; cyclic)
[1]
  Reads/Total TXXXR reads (%): 0.014%
[2]
  Reads/Total pentapeptide reads (%): 0.007%
[3]
  Reads/Total peptide reads (%): 0.006%
[4]
  Number of reads: 266

## TPALVD [AβC6-53]
Table 4
  Reads/Total hexapeptide reads (%): 0.046%
  Reads/Total peptide reads (%): 0.005%
[9]
  Number of reads: 208

## AβC5-123 (TTVHR; cyclic)
[1]
  Reads/Total TXXXR reads (%): 0.177%
[2]
  Reads/Total pentapeptide reads (%): 0.083%
[3]
  Reads/Total peptide reads (%): 0.074%
[4]
  Number of reads: 3,371

## AβC5-248 (TTTHR; cyclic)
[1]
  Reads/Total TXXXR reads (%): 0.018%
[2]
  Reads/Total pentapeptide reads (%): 0.008%
[3]
  Reads/Total peptide reads (%): 0.007%
[4]
  Number of reads: 339

## AβC5-44 (TAWAR; cyclic pentapeptide)
[1]
  Reads/Total TXXXR reads (%): 1.094%
[2]
  Reads/Total pentapeptide reads (%): 0.512%
[3]
  Reads/Total peptide reads (%): 0.459%
[4]
  Number of reads: 20,807

## TLHWFE [AβC6-26]
Table 4
  Reads/Total hexapeptide reads (%): 0.143%
  Reads/Total peptide reads (%): 0.014%
[9]
  Number of reads: 647

## TLEYFM [AβC6-28]
Table 4
  Reads/Total hexapeptide reads (%): 0.123%
  Reads/Total peptide reads (%): 0.012%
[9]
  Number of reads: 556

## TCSWFD [AβC6-27]
Table 4
  Reads/Total hexapeptide reads (%): 0.138%
  Reads/Total peptide reads (%): 0.014%
[9]
  Number of reads: 623
